Measured values from the Human Domainome abundance scans (Beltran et al. 2025).

B1: Proto-oncogene vav, residues 782 to 842; numbered along this chain, P15498 (parent)
chain: KYFGTAKARYDFCARDRSELSLKEGDIIKILNKKGQQGWWRGEIYGRVGWFPANYVEEDYS

Variants of: B1
Experiment: abundance fitness (aPCA) (normalised: wild type 0, dead -1); higher = more abundant; growth selection in yeast, the domain comes from the species named
Conditions: Homo sapiens

Abundance fitness of substitutions, site by site:
L31: E -0.644; A -0.816; H -0.285; G -0.773; K -0.392; C -0.412; F -0.46; I -0.004; D -0.415
S21: L -0.653; P -0.36; N -0.333; K -0.627; D 0.153; F -0.607; Y -0.513; H -0.243; V -0.895; E -0.049; G -0.34; T -0.265; I -0.378; Q -0.594; R -0.742
D26: G -0.948; P -1.15; W -0.8; T -0.777; L -0.814; M -0.401; K -0.964; C -0.737; E -0.172; V -0.559; N -0.45; Q -0.278; A -0.493; Y -0.472; R -0.996; H -0.941; I -0.663
L22: S -0.852; R -0.791; H -0.456; V -0.332; N -0.91; F 0.176; Q -1.07; W -0.888; P -0.971; M -0.13; I 0.016; K -0.857; A -0.494; C -0.405
K29: L -0.068; D -0.229; Q -0.265; I -0.391; M -0.095; S -0.092; V -0.376; H -0.082; Y -0.217; T -0.103; A -0.225; N -0.033; F -0.483; E -0.493; C -0.467; G -0.281; W -0.4; P -0.462
E24: I -0.124; R 0.068; K -0.01; L -0.809; S -0.056; Q -0.072; A 0.082; H -0.13; T -0.01; V 0.045; N -0.118; W -0.92; G -0.262; M -0.009; P -0.111; C -0.091; F -0.575; Y -0.231; D -0.361
I30: W -0.871; E -0.876; L -0.319; Q -0.833; P -0.814; A -0.552; F -0.776; V 0.006; M -0.555; N -0.77; Y -0.74; R -0.634; S -0.662; G -0.675
I28: Q -0.834; P -0.811; V 0.039; C -0.436; L -0.412; W -0.591; D -0.944; G -0.935; R -1.11; S -0.792; M -0.593; F -0.816; A -0.662; T -0.315
I27: D -0.151; M -0.192; G -0.704; F -0.44; L -0.198; P -0.557; R -0.21; S -0.276; W -0.324; C -0.194; E -0.154; H -0.14; V 0.065; A -0.331; Y -0.294; K -0.22
G25: L -0.904; V -1.21; C -0.895; P -0.615; Q -0.957; M -0.742; S -0.818; R -0.667; D -0.518; W -0.498; F -0.786; N -0.675; H -0.975; Y -1.02; A -0.721; T -0.97
K23: A -0.222; M -0.207; W -0.816; P -0.907; H -0.142; E -0.613; Y -0.232; S -0.168; F -0.585; N -0.576; L -0.585; I -0.524; T -0.237; Q -0.221; G -0.815
